Source: patent US20210061891A1 (DUKE UNIVERSITY, published 2021)
Numbering of substitutions follows the chain as printed. Ends that are not written are not given here.

B1: Ab7957/293i (antibody, V domains shown)
VH: LVESGGGVVPPGKSLRLSCAASGFTFSLYGIHWVRQAPGKGLEWVAVISYDGNTKYYTDSVKGRFTISRDNAKNTIYLQMNSLRLDDTAVYYCAKGAANSATFDFWGRGTMVTVSS
VL: MTQSPDSLTLSLGERATINCRSSRTVLYRSNNKNYLAWYQHKPGQPPKLLMSWASTRETGVPDRFSGSGSGTHFTLTITSLQPEDVAVYYCQQYYSPPWTFGQGTKVEIR
notes: Recombinant human mAb
B2: Ab7961/293i (antibody, V domains shown)
VH: LVESGGGVVQPGKSLRLSCVASGFTFSSYGMHWVRQAPGKGLEWVAVMSFDGKTKYYADSVKGRFTISRDNPKNTLYLQMNSLRSEDTAVYYCAKGGAAAAVFDSWGQGILLTVSS
VL: MTQSPNSLAVSLGGRATINCKTSQSILYRSNNKNYLAWYQHKSGQPPKLLIYWASTRESGVPDRFSGSGSRTDFTLTISGLQAEDVAVYYCQQYYNPPWTFGQGTKVEIK
notes: Recombinant human mAb
B3: Ab7960/293i (antibody, V domains shown)
VH: B2 VH with T25S, S28T, Q108P
VL: B2 VL with T22A, S43A, D63E, S79N
notes: Recombinant human mAb
B4: Ab7964 (antibody, V domains shown)
VH: LVESGGGVVQPGRSLRLSCAASGVTFSRYGMHWVRQAPGKGLEWVAVISYDEKTKYYADSVKGRFTISRDNSKNTLFLHMNRLRYEDTAVYYCAKGASSGAYFDYWGQGTLVTVSS
VL: not shown
notes: Recombinant human mAb
B5: Ab7979 (antibody, V domains shown)
VH: B2 VH with S28T
VL: B2 VL with S43P, G60R
notes: Recombinant human mAb
B6: CFH mAb7968 (antibody, V domains shown)
VH: LVESGGGVVQPGRSLRLSCAASGFTFSRYGMHWVRQAPGKGLEWVAVMSYDGSTKYYADSVKGRFAISRDNPKNTLFLQMNSLRPDDTAVYYCAKGGAAAAVMDVWGKGTTVTVSS
VL: MTQSPDSLTVSLGERATISCKSSQRLLYSSNNKNYLAWYQQKPGQPPKLLMYWASTRESGVPDRFSGSGSGTDFSLTISSLQAEDVAVYYCQQYYNPPWTFGQGTKVEVK
notes: also called CBAb1
B7: Ab7955 (antibody, V domains shown)
VH: LVESGGGVVRPGRSLRLSCVASGFTFNAYGMHWVRQGPGKGLEWLAVISYEGKTVYYADSVKDRFTISRDNSRNTVSLHLNNLRGEDTAVYYCAKGSASAAVLQHWGQGTLVSVTS
VL: MTQSPGSLAVSLGSRATINCKSSRSLLYRSNNKNYLAWYQQKPGQSPRLLIYWASSRESGVPDRFSGGGSGTSFTLTISSLQAEDVAVYYCQQYFNPPWTFGQGTKVEIK
notes: Recombinant human mAb

Target: T1, reduced Complement Factor H (CFH treated with TCEP) (human, UniProt P08603 19-1231, disulfide bonds reduced with TCEP)
T1 construct: also called reduced CFH; conformationally distinct form of CFH
T1 sequence (P08603 19-1231 limits assumed): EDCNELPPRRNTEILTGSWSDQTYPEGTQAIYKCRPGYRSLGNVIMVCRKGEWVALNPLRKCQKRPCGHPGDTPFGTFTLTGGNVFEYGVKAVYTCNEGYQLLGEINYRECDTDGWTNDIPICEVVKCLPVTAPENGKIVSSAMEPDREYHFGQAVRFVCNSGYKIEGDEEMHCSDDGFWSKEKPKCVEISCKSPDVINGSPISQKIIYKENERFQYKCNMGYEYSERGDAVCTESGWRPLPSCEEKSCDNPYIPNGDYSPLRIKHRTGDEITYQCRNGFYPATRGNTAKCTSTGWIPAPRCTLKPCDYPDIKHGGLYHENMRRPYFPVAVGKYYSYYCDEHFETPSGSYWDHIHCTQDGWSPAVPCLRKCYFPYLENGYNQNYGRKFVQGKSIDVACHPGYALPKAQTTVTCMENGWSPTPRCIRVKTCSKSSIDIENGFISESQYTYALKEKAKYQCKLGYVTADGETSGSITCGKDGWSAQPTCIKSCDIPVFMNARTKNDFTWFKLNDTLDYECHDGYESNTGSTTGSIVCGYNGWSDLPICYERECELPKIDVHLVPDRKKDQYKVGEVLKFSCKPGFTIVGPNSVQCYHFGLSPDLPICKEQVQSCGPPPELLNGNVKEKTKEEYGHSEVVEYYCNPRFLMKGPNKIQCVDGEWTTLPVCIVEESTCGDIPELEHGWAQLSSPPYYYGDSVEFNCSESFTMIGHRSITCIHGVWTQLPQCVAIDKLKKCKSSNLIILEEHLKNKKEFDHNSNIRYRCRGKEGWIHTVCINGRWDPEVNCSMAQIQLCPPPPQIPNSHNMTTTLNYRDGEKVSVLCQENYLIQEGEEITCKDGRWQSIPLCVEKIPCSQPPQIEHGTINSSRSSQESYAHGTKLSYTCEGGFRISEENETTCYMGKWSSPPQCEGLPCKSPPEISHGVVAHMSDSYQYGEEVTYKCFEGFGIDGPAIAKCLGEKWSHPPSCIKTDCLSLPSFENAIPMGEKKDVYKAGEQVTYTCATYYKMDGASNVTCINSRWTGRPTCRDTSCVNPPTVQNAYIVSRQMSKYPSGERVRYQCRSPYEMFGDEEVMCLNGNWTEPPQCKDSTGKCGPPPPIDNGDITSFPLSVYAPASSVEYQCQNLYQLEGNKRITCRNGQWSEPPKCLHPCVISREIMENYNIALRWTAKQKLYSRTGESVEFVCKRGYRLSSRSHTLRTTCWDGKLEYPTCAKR
Assay: immunoblot (Surf-Blot), CFH treated with TCEP (reduced) before electrophoresis; anti-human IgG-HRP

binding result	Binder
binds	B1
binds	B2
binds	B3
binds	B4
binds	B5

Target: T2, native Complement Factor H (CFH) (human, UniProt P08603 19-1231)
T2 construct: Native, non-reduced CFH; also called native CFH; full-length native CFH
T2 sequence (P08603 19-1231 limits assumed): as above
Assay: immunoblot (Surf-Blot), CFH treated with Tris-HCl (oxidized) before electrophoresis; anti-human IgG-HRP

binding result	Binder
binds	B1
binds	B2
binds	B3
binds	B4
binds	B5

Target: T3, residue mutated to A: P (also: biotinylated, attachment site not given here)
T3 construct: position from the legend (CFH1114-1121)
T3 peptide: GPPPAIDNGDITSFP
Assay: ELISA on streptavidin-immobilized biotinylated 15mer peptides; area under the signal vs antibody concentration curve;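 also: antibody binding to each alanine-substituted peptide expressed relative to binding to the natural peptide, using curve area determined separately for every peptide-antibody pair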

percent of binding to the natural peptide (AUC) [%]	Binder
61	B1
56	B2
53	B3
74	B4
64	B5
73	B6
52	B7

Target: T4, residue mutated to A: I (also: biotinylated, attachment site not given here)
T4 construct: position from the legend (CFH1114-1121)
T4 peptide: GPPPPADNGDITSFP
Assay: as above

percent of binding to the natural peptide (AUC) [%]	Binder
61	B1
52	B2
43	B3
76	B4
61	B5
73	B6

Target: T5, residue mutated to A: D (3rd column) (also: biotinylated, attachment site not given here)
T5 construct: position from the legend (CFH1114-1121)
T5 peptide: GPPPPIANGDITSFP
Assay: as above

percent of binding to the natural peptide (AUC) [%]	Binder
100	B1
100	B2
95	B3
100	B4
96	B5
102	B6
81	B7

Target: T6, residue mutated to A: N (also: biotinylated, attachment site not given here)
T6 construct: position from the legend (CFH1114-1121)
T6 peptide: GPPPPIDAGDITSFP
Assay: as above

percent of binding to the natural peptide (AUC) [%]	Binder
30	B1
29	B5

Target: T7, residue mutated to A: G (also: biotinylated, attachment site not given here)
T7 construct: position from the legend (CFH1114-1121)
T7 peptide: GPPPPIDNADITSFP
Assay: as above

percent of binding to the natural peptide (AUC) [%]	Binder
99	B1
104	B2
99	B3
100	B4
102	B5
100	B6
104	B7

Target: T8, residue mutated to A: D (6th column) (also: biotinylated, attachment site not given here)
T8 construct: position from the legend (CFH1114-1121)
T8 peptide: GPPPPIDNGAITSFP
Assay: as above

percent of binding to the natural peptide (AUC) [%]	Binder
102	B1
105	B2
99	B3
102	B4
98	B5
101	B6
103	B7

Target: T9, residue mutated to A: T (also: biotinylated, attachment site not given here)
T9 construct: position from the legend (CFH1114-1121)
T9 peptide: GPPPPIDNGDIASFP
Assay: as above

percent of binding to the natural peptide (AUC) [%]	Binder
48	B1
16	B2
66	B4
54	B6
